According to the RNAGym collection of RNA variant scans (doi:10.1093/molbev/msab373):

B1: Azoarcus group I ribozyme (parent)
chain: GUGCCUUGCGCCGGGAAACCACGCAAGGGAUGGUGUCAAAUUCGGCGAAACCUAAGCGCCCGCCCGGGCGUAUGGCAACGCCGAGCCAAGCUUCGGCGCCUGCGCCGAUGAAGGUGUAGAGACUAGACGGCACCCACCUAAGGCAAACGCUAUGGUGAAGGCAUAGUCCAGGGAGUGGCGAAAGUCACACAAACCGG

Variants of: B1
Assay: reverse-splicing fitness (ratio to wild type); higher = more active; in vitro selection; Mg2+ level not given
How it was run: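 An in vitro group I ribozyme library with randomized positions was T7-transcribed and gel-purified. In triplicate, 10 pmol RNA in EPPS pH 7.5 was reacted with 50 pmoles of a 30-nt RNA substrate for 1 h at 37 °C across several added MgCl2 levels (1–48 mM), then stopped with EDTA. Products were reverse transcribed from a substrate-complementary primer, PCR-amplified and sequenced (HiSeq 4000). Fitness is a variant's read proportion after selection over that before, normalised to wild type.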

Variant	reverse-splicing fitness
A111G C150U	0.905
A111G C150A	0.462
A111G C150G	0.363
A111G C150G C169G	0.0138
A111G C150G C169U	0.0227
A111G C150G C169A	0.0114
A111G C150U C169G U176A	0.0243
A111G C150U C169G U176C	0.0386
A111G C150U C169G U176G	0.00579
A111G A145U C150A C169U U176G	0.00519
A111G A145U C150A C169U U176C	0.0165
A111G A145U C150A C169U U176A	0.0162
A111G A145C C150U C169U U176A	0.0217
A111G A145C C150U C169U U176G	0.0062
A111G A145C C150U C169U U176C	0.0247
A111G A120U C150U C169U U176G	0.0032
A111G A120U C150U C169U U176C	0.02
A111G A120U C150U C169U U176A	0.016
A111G C169A U176G	0.00542
A111G C169A U176A	0.0183
A111G C169A U176C	0.0226

Variant	reverse-splicing fitness
A111G A145G C150G	0.364
A111G A145G C150A	0.517
A111G A145G C150U	0.941
A111G A145C U176G	0.448
A111G A145C U176A	0.718
A111G A145C U176C	0.78
A111U A120C A145C C150G U176A	0.0176
A111U A120C A145C C150G U176G	0.00429
A111U A120C A145C C150G U176C	0.04
A111G A145U U176A	0.755
A111G A145U U176G	0.524
A111G A145U U176C	0.809
A111G C169U U176C	0.0614
A111G C169U U176A	0.0489
A111G C169U U176G	0.00769
A111G A145G C169A U176C	0.036
A111G A145G C169A U176A	0.0226
A111G A145G C169A U176G	0.00526
A111G C150A C169A U176A	0.0171
A111G C150A C169A U176C	0.0177
A111G C150A C169A U176G	0.00678

Variant	reverse-splicing fitness
A111G A145G	0.9
A111G A145U	0.957
A111G A145C	0.876
A111G A145U C150G C169A U176C	0.00907
A111G A145U C150G C169A U176A	0.00932
A111G A145U C150G C169A U176G	0.00461
A111G A145C C150G C169A U176C	0.00646
A111G A145C C150G C169A U176G	0.00652
A111G A145C C150G C169A U176A	0.0077
A111U A120C A145C	0.537
A111G A145C C150U	0.688
A111G A145C C150A	0.229
A111G A145C C150G	0.45
A111G A120U C169G U176A	0.0109
A111G A120U C169G U176C	0.0228
A111G A120U C169G U176G	0.00198
A111U A120C A145C C150A C169U U176C	0.0123
A111U A120C A145C C150A C169U U176A	0.0169
A111U A120C A145C C150A C169U U176G	0.00524
A111G A145C C169G U176A	0.0344
A111G A145C C169G U176C	0.0431

Variant	reverse-splicing fitness
A111G A145C C169G U176G	0.00491
A111G A145C C150A C169G U176G	0.00534
A111G A145C C150A C169G U176A	0.02
A111G A145C C150A C169G U176C	0.0114
A111G A145U C150G U176G	0.0305
A111G A145U C150G U176C	0.226
A111G A145U C150G U176A	0.17
A111G A145G C150U C169A	0.0452
A111G A145G C150U C169U	0.168
A111G A145G C150U C169G	0.101
A111U A120C A145C C150U C169G U176G	0.00481
A111U A120C A145C C150U C169G U176C	0.00958
A111U A120C A145C C150U C169G U176A	0.0171
A111U	0.971
A111G A145G C150A C169A U176C	0.0214
A111G A145G C150A C169A U176G	0.00563
A111G A145G C150A C169A U176A	0.0183
A111G A145G C169U U176C	0.0655
A111G A145G C169U U176G	0.00661
A111G A145G C169U U176A	0.0478
